From patent US8263340B2, “Constitutively active mutants of the prolactin receptor” (Institut National de la Sante et de la Recherche Medicale …, priority 2007, dated 2012)

What was measured:
[1] = system: LHRE-luciferase reporter (Stat5); test: LHRE-luciferase reporter assay in HEK 293 cells expressing WT or mutated hPRLR; format: cell-based, human
Excerpt: The human PRLR cDNA inserted into the pc/DNA3 eukaryotic vector (InVitrogen, Carlsbad, Calif.) has been generated as described previously (LOCHNAN et al, Mol Cell Endocrinol 114:91-99, 1995; GOFFIN et al, J Biol Chem 271:16573-16579, 1996). The PRLR-responsive LHRE-luciferase reporter gene carries the sequence encoding the firefly luciferase gene under the control of a 6-repeat sequence of the lactogenic hormone response element (LHRE) followed by the minimal thymidine kinase promoter (GOFFIN et al., J Biol Chem, 271, 16573-16579, 1996). LHRE is the DNA binding element of the signal transducer and activator of transcription Stat5, one of the signaling proteins activated by the PRLR once it is activated (WAKAO et al, EMBO J. 13, 2182-2191, 1994).
Cells were routinely cultured in DMEM medium supplemented with 10% FCS, 2 mM glutamine, 50 U/mL penicillin, 50 μg/mL streptomycin. Cells were co-transfected, using the lipofectamine method with two or three plasmids, one encoding the receptor of interest, one encoding the LHRE-firefly luciferase vector as a reporter of PRLR-mediated a effects, and one encoding the Renilla Luciferase which is expressed in a PRL-independent manner and serves as an internal control of transfection efficiency (DOS SANTOS et al., Nat Genet, 36, 720-724, 2004).
After trypsinization, cells were counted and aliquoted in 96-well plates at a density of 50,000 cells/100 μL/well. Plating medium contained 0.5% FCS to allow cell adhesion. Six to eighteen hours (overnight) after plating, cells were stimulated by addition to each well of 100 μL of PRL (1 μg/ml) diluted in FCS-free medium. After 24 hours of stimulation, culture medium was aspirated and cells were lyzed for at least 10 minutes in 50-100 μL of lysis buffer (Promega). Luciferase activity (only firefly luciferase for stable clones, and both firefly and renilla luciferases for transient transfections) for each experimental condition was counted in 10-20 μL of cell lysates for 10 seconds using a luminometer (Lumat LB 9501, Berthold, Nashua, N.H.). […]

Ba/F3 cells [2] = test: Cell cycle / apoptosis of transfected Ba/F3 stable populations by FACS (propidium iodine); format: cell-based, murine; details: minimal medium
Excerpt: The cell cycle of transfected Ba/F cells (stable populations) was studied by FACS analysis, using propidium iodine labelling as previously described (JEAY et al., Endocrinology 142:147-156, 2001). Cells were put in minimal medium, with or without PRL for the indicated time.

hPRL = test: Binding affinity of WT and mutated PRLR for hPRL, [125I]-hPRL competition with Scatchard analysis, stably transfected HEK 293 cell homogenates; parameters: species or system human; details: stable HEK 293 clones, overnight at room temperature
Experimental: (§1) Binding affinities of mutated PRLR for hPRL were determined using cell homogenates of stably transfected HEK 293, following a procedure previously described (KINET et al., J Biol Chem, 274, 26033-26043, 1999). Briefly, recombinant hPRL, produced in bacteria E. coli using the pT7L expression vector, and purified as described previously (PARIS et al., Biotechnol Appl Biochem, 12, 436-449, 1990), was iodinated using the Iodogen method, and its specific activity was in the range of 4-5 μCi/μg. Binding assays were performed overnight at room temperature using 150-300 μg cell homogenate protein in the presence of 20,000-30,000 cpm [^125I]-hPRL and increasing concentrations of unlabeled hPRL (competitor). Scatchard analysis was performed to determine the binding affinity of mutated PRLR and the number of PRLR per cell in stable clones or populations.

Ba/F3 cells [3] = format: cell-based, murine; details: 1% FCS; for constitutive proliferation / survival: absence of PRL
Experimental: Ba/F3 cells are a pro-B murine cell line dependent on IL-3 for growth. Cells were transfected by electroporation using 5-20 μg of plasmid encoding the WT or mutated human PRLR(CMV promoter), then the populations stably expressing the receptor was selected by several passages in G418-containing medium. Ba/F3-hPRLR cells were routinely maintained in RPMI 1640 medium supplemented with 10% heat-inactivated FCS, 2 mM glutamine, 50 U/mL penicillin, 50 μg/mL streptomycin, 700 μg/mL G-418 (for selection of stably transfected cells), and 10-100 ng/mL WT hPRL instead of IL-3 as the growth factor.
(§2) Cells were starved for 6 hours in 1% FCS RPMI medium with additives (no PRL), then distributed in 96 well-plates at a density of 5×10^4 cells/well in a final volume of 100 μL. One hundred μL, of [2×] hPRL (and/or antagonist) diluted in the same medium were added after starvation period. Cell survival/proliferation was estimated after 2-3 days of hormonal stimulation by adding 10-20 μL, of WST-1 tetrazolium salt, which is metabolized by living cells (BERNICHTEIN et al., Endocrine, 20, 177-190, 2003). Optical density at 450 nm (OD450) was measured after 1-3 hours of colorimetric reaction using an ELISA plate reader. The experiments were routinely performed at least three times in triplicate or quadruplicate.

WT PRLR cells = test: Effect of PRLR inhibitors on proliferation of Ba/F3 cells expressing WT PRLR; format: cell-based, murine; details: no PRL, 1% FCS, 3 days
Experimental: as §2, with “([…]” for “(BERNICHTEIN”, “quadruplicate. Proliferation of stable Ba/F3 cell populations was evaluated in poor medium (1% FCS) in the presence of WT hPRL, or of the PRLR antagonist De11-9-G129R-hPRL, or of AG490, for 3 days. The results are illustrated in FIGS. 12 and 13.” for “quadruplicate.”

mutant I76V = test: Effect of PRLR inhibitors on proliferation of Ba/F3 cells expressing mutant I76V; format: cell-based, murine; details: 3 days
Experimental: as §2
Proliferation of stable Ba/F3 cell populations was evaluated in poor medium (1% FCS) in the presence of WT hPRL, or of the PRLR antagonist De11-9-G129R-hPRL, or of AG490, for 3 days. The results are illustrated in FIGS. 12 and 13.

mutated PRLR = test: Binding affinity of the PRLR antagonist for mutated and WT PRLR (not shown); parameters: species or system human
Experimental: as §1
Similarly, the affinity for the pure PRLR antagonist De11-9-G129R-hPRL (BERNICHTEIN et al., J Biol Chem, 278, 35988-35999, 2003) is also identical for the mutants and the receptors (not shown).

Stat5 = Stat5 phosphorylation by immunoprecipitation and western blot in Ba/F3 populations; format: cell-based, murine
Experimental: Stat5 is the main PRLR signalling mediator, and a known anti-apoptotic factor in Baf cells. Its phosphorylation was analyzed by immunoprecipitation and western blot, using the protocol described in Example 3 for the analysis of PRLR phosphorylation.
Immunoprecipitation was performed with anti-STAT5 antibodies (c17, SantaCruz). The membranes were incubated with anti-PY antibody (4G10, Upstate), and when required re-incubated with anti-STAT5 (c17, SantaCruz) antibodies.
The results are illustrated by FIG. 16: (−)=no PRL, (+)=0,5 μg/ml PRL.

PRLR phosphorylation = test: PRLR tyrosine phosphorylation by immunoprecipitation and western blot in transfected HEK 293 cells; format: cell-based, human
Experimental: Receptor phosphorylation on tyrosine residues is the first step of PRLR activation.
Transient or stable transfected cells were starved overnight in FCS-free medium before hormonal stimulation. The next day, cells were stimulated (5-30 min at 37° C.) using various concentrations of WT hPRL as indicated. At the end of the stimulation, cells were washed twice with ice-cold saline buffer and cell pellets were kept frozen until used. Cells were solubilized in 0.5-1 ml lysis buffer (30 min under gentle rotation at 4° C.). Lysates were centrifuged for 10 min at 13,000×g, then supernatants were quantified for their protein content by Bradford assay and used for immunoprecipitation.
For immunoprecipitation studies, 0.5-1 mg of total lysate were incubated with anti-human PRLR (anti extracellular domain of the human PRLR, Zymed, clone 1A2B1), used at 1-5 μl/ml. After overnight rotation at 4° C., immune complexes were captured using 20 μl Protein A Sepharose slurry for 1 additional hour rotation at 4° C. Protein A complexes were precipitated by centrifugation, pellets were washed 3 times in lysis buffer and boiled in 15 μl reducing SDS sample buffer for 5 min at 95° C. Finally, immunoprecipitated samples were analysed using 7.5% SDS-PAGE. Electrophoretic transfer onto nitrocellulose membranes (Bio-Rad) was performed as described (LLOVERA et al., Oncogene, 19, 4695-4705, 2000). […]

wild-type PRLR: wild-type human prolactin receptor (isoform 1), SEQ ID NO: 1, used as control
basal activity (unstimulated cells), luciferase ([1]; no PRL, compared to WT receptor): devoid of activity
fold stimulation induced by PRL ([1]; stable clones, PRL 1 μg/ml, 24 hours): 8 fold
apoptosis (Ba/F3 cells [2]; absence of PRL, 30 h): 50%
effect of PRL on apoptosis (Ba/F3 cells [2]; with PRL): PRL prevents this effect
Kd (hPRL): 0.64 nM
constitutive proliferation / survival (Ba/F3 cells [3]): hardly survived

N#CC(=Cc1ccc(O)c(O)c1)C(=O)NCc1ccccc1 [AG490, N-Benzyl-3,4-dihydroxy-benzylidenecyanoacetamide, reference compound]
effect on basal proliferation of WT PRLR cells (WT PRLR cells): no effect
inhibition of constitutive activation (proliferation) of mutant I76V (mutant I76V; 20 μM AG490, no PRL): partially inhibited

B1: De11-9-G129R-hPRL: pure PRLR antagonist, variant of human prolactin, which interferes with the mechanism of receptor activation by PRL (protein)
chain: RCQVTLRDLFDRAVVLSHYIHNLSSEMFSEFDKRYTHGRGFITKAINSCHTSSLATPEDKEQAQQMNQKDFLSLIVSILRSWNEPLYHLVTEVRGMQEAPEAILSKAVEIEEQTKRLLERMELIVSQVHPETKENEIYPVWSGLPSLQMADEESRLSAYYNLLHCLRRDSHKIDNYLKLLKCRIIHNNNC
effect on basal proliferation of WT PRLR cells (WT PRLR cells): no effect
inhibition of constitutive activation (proliferation) of mutant I76V (mutant I76V; 10 μg/ml antagonist, no PRL): inhibited
affinity for mutants versus WT receptor (mutated PRLR): identical

B2: I76V: mutant human prolactin receptor wherein the Ile residue at position 76 is substituted by a Val residue (protein)
chain: QLPPGKPEIFKCRSPNKETFTCWWRPGTDGGLPTNYSLTYHREGETLMHECPDYITGGPNSCHFGKQYTSMWRTYVMMVNATNQMGSSFSDELYVDVTYIVQPDPPLELAVEVKQPEDRKPYLWIKWSPPTLIDLKTGWFTLLYEIRLKPEKAAEWEIHFAGQQTEFKILSLHPGQKYLVQVRCKPDHGYWSAWSPATFIQIPSDFTMNDTTVWISVAVLSAVICLIIVWAVALKGYSMVTCIFPPVPGPKIKGFDAHLLEKGKSEELLSALGCQDFPPTSDYEDLLVEYLEVDDSEDQHLMSVHSKEHPSQGMKPTYLDPDTDSGRGSCDSPSLLSEKCEEPQANPSTFYDPEVIEKPENPETTHTWDPQCISMEGKIPYFHAGGSKCSTWPLPQPSQHNPRSSYHNITDVCELAVGPAGAPATLLNEAGKDALKSSQTIKSREEGKATQQREVESFHSETDQDTPWLLPQEKTPFGSAKPLDYVEIHKVNKDGALSLLPKQRENSGKPKKPGTPENNKEYAKVSGVMDNNILVLVPDPHAKNVACFEESAKEAPPSLEQNQAEKALANFTATSSKCRLQLGGLDYLDPACFTHSFH
fold induction ([1]; transient transfections, normalized firefly/renilla luciferase): 5 fold
effect of PRL stimulation on phosphorylation of Stat5 (Stat5; 0,5 μg/ml PRL): can be increased
phosphorylation of Stat5 (Stat5; absence of PRL stimulation): moderate
constitutive phosphorylation of PRLR (PRLR phosphorylation; absence of PRL stimulation): weaker
effect of PRL stimulation on PRLR phosphorylation (PRLR phosphorylation; with PRL stimulation): increased phosphorylation
Kd (hPRL): 0.44 nM
effect of PRL on proliferation (Ba/F3 cells [3]; 10 or 100 ng/ml hPRL): further increased
constitutive proliferation / survival (Ba/F3 cells [3]): moderate but significant constitutive proliferation
